doi:10.1101/2021.02.22.432310, “Tetrameric UvrD helicase is located at the E. coli replisome due to frequent replication blocks” (bioRxiv, 2021)

Biological target: T1, Biotinylated UvrD (E. coli, UniProt P03018 1-720, biotin)
T1 construct: UvrD helicase (DNA helicase II), E. coli; also called E. coli UvrD
T1 sequence (looked up): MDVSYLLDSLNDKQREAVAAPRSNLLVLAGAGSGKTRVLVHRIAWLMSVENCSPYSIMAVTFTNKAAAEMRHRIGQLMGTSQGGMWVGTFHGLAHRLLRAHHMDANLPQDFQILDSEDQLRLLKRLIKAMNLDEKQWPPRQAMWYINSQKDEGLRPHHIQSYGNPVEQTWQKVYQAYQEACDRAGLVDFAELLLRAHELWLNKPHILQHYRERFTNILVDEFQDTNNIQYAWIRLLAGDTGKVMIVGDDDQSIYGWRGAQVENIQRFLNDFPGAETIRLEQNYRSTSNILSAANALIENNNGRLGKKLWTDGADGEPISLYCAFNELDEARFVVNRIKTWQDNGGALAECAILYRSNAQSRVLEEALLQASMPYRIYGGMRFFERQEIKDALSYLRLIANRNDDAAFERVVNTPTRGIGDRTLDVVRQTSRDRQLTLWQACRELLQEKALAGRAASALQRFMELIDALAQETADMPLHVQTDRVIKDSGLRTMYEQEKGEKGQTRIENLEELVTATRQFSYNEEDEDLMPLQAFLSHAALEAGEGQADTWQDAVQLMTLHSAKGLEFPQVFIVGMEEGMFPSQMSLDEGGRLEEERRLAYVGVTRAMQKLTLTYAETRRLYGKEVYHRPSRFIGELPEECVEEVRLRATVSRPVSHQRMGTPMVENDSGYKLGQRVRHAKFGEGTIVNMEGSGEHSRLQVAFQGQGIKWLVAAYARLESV
Test: SPR; BIAcore T200, 25°C; biotinylated UvrD or Rep immobilised on streptavidin-coated SA chips; Tau or UvrB passed over, ca. 200-4000 nM, 20 µl/min; 10 mM HEPES pH 7.4, 3 mM EDTA, 150 mM NaCl, 10 mM MgCl2, 0.05% Tween 20; single sites binding model
Conditions: both partners purified

Kd: 231 nM
B1: UvrB (natural protein, UniProt P0A8F8 1-673, looked up)
chain: MSKPFKLNSAFKPSGDQPEAIRRLEEGLEDGLAHQTLLGVTGSGKTFTIANVIADLQRPTMVLAPNKTLAAQLYGEMKEFFPENAVEYFVSYYDYYQPEAYVPSSDTFIEKDASVNEHIEQMRLSATKAMLERRDVVVVASVSAIYGLGDPDLYLKMMLHLTVGMIIDQRAILRRLAELQYARNDQAFQRGTFRVRGEVIDIFPAESDDIALRVELFDEEVERLSLFDPLTGQIVSTIPRFTIYPKTHYVTPRERIVQAMEEIKEELAARRKVLLENNKLLEEQRLTQRTQFDLEMMNELGYCSGIENYSRFLSGRGPGEPPPTLFDYLPADGLLVVDESHVTIPQIGGMYRGDRARKETLVEYGFRLPSALDNRPLKFEEFEALAPQTIYVSATPGNYELEKSGGDVVDQVVRPTGLLDPIIEVRPVATQVDDLLSEIRQRAAINERVLVTTLTKRMAEDLTEYLEEHGERVRYLHSDIDTVERMEIIRDLRLGEFDVLVGINLLREGLDMPEVSLVAILDADKEGFLRSERSLIQTIGRAARNVNGKAILYGDKITPSMAKAIGETERRREKQQKYNEEHGITPQGLNKKVVDILALGQNIAKTKAKGRGKSRPIVEPDNVPMDMSPKALQQKIHELEGLMMQHAQNLEFEEAAQIRDQLHQLRELFIAAS
